Assay results: PMC9082627

Target: STX17-Flag (UniProt P56962)
Test: co-IP

STING-HA C148A (from UniProt Q86WV6 1-379) (natural protein)
reduction of the co-immunoprecipitated interaction against STING WT: 50%
